Data on 32 sequences can be found in publication PMC4434323.

Series [1] has as its target T1, die-1 (C18D1.1) (Caenorhabditis elegans) (UniProt A0A131MCR4).
T1 sequence: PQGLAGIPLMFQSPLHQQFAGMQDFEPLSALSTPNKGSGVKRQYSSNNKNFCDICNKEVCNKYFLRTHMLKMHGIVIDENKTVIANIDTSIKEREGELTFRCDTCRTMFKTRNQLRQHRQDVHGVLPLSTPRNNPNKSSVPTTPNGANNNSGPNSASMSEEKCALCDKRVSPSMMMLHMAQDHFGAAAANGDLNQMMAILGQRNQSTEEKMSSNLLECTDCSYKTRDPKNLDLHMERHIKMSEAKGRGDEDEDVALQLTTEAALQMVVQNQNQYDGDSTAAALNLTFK

Series [2] deals with T2, B0310.2 (B0310.2) (Caenorhabditis elegans) (UniProt Q10938).
T2 sequence: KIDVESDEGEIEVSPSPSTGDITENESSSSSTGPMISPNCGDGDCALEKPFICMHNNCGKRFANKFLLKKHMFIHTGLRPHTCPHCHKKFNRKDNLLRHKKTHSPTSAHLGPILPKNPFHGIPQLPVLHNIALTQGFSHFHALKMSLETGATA

Series [3] concerns the target T3, zip-3 (W07G1.3) (Caenorhabditis elegans) (UniProt Q9XUK2).
T3 sequence: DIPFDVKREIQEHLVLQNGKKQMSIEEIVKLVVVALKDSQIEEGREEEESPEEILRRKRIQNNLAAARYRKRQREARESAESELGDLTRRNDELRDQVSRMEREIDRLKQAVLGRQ

Series [4] has as its target T4, skn-1 (T19E7.2) (Caenorhabditis elegans) (UniProt P34707).
T4 sequence: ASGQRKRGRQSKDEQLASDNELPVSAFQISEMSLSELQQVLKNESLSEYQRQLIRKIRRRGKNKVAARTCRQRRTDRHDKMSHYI

In series [5] the target is T5, ham-2 (C07A12.1) (Caenorhabditis elegans) (UniProt H2KYH4).
T5 sequence: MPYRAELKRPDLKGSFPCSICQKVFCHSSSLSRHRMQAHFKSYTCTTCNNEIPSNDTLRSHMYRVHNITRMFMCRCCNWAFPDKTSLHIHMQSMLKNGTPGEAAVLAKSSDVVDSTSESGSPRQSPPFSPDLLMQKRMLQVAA

Series [6] addresses T6, ztf-29 (Y66D12A.12) (Caenorhabditis elegans) (UniProt Q95Q03).
T6 sequence: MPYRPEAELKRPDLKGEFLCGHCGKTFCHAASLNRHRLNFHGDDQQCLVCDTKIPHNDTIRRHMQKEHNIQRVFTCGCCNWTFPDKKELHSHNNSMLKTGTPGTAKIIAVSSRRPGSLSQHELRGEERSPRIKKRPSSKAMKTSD

Series [7] addresses atf-7 (C07G2.2) (Caenorhabditis elegans) (UniProt Q86MD3).
For series [8], the target named is T7, atf-5 (T04C10.4) (Caenorhabditis elegans) (UniProt Q22156).
T7 sequence: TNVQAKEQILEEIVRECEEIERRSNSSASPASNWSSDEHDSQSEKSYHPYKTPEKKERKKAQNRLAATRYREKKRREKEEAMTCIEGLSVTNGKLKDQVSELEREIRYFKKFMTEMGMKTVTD

atf-7 (C07G2.2) (Caenorhabditis elegans), sequence (Q86MD3 339-508): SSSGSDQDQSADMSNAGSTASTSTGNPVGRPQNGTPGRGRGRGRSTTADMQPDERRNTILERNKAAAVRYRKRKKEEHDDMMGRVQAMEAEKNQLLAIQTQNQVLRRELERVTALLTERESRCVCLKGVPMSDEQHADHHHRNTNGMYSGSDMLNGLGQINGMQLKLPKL

As to “ATTTTAAA (double strand) [8-mer ATTTTAAA]”, the binding signal (PBM E-score (-0.5 to 0.5)) in series [1] is 0.496.
For the sequence “GTGAGGGA (double strand) [8-mer GTGAGGGA]”, the binding signal (PBM E-score (-0.5 to 0.5)) in series [2] was 0.478.
Same read-out and setting: for “ATACCTCA (double strand) [8-mer ATACCTCA]” the value was 0.485.
“CGTCATCA (double strand) [8-mer CGTCATCA]”: the results for the binding signal (PBM E-score (-0.5 to 0.5)) in series [3] and in series [4] were 0.489 and 0.492, respectively.
“AGCTAGCT (double strand) [8-mer AGCTAGCT]” returned a binding signal (PBM E-score (-0.5 to 0.5)) in series [5] of 0.488.
For “TTTTAAAA (double strand) [8-mer TTTTAAAA]”, the binding signal (PBM E-score (-0.5 to 0.5)) in series [1] was found to be 0.494.
For the sequence “ATTTAAAC (double strand) [8-mer ATTTAAAC]”, in series [1], the binding signal (PBM E-score (-0.5 to 0.5)) amounted to 0.484.
Regarding “TACCTCAA (double strand) [8-mer TACCTCAA]”, the binding signal (PBM E-score (-0.5 to 0.5)) in series [2] turned out to be 0.495.
As for “ACTTTAAA (double strand) [8-mer ACTTTAAA]”, in series [1], the binding signal (PBM E-score (-0.5 to 0.5)) stood at 0.493.
“GTTTTAAA (double strand) [8-mer GTTTTAAA]” gave a binding signal (PBM E-score (-0.5 to 0.5)) in series [1] of 0.478.
As to “GTGAGGTA (double strand) [8-mer GTGAGGTA]”, in series [2], the binding signal (PBM E-score (-0.5 to 0.5)) was 0.485.
Regarding “GAACCTCA (double strand) [8-mer GAACCTCA]”, the binding signal (PBM E-score (-0.5 to 0.5)) in series [2] came to 0.48.
The sequence “TTAGCTAA (double strand) [8-mer TTAGCTAA]” showed a binding signal (PBM E-score (-0.5 to 0.5)) in series [5] of 0.483.
As for “AAGCTAGC (double strand) [8-mer AAGCTAGC]”, the binding signal (PBM E-score (-0.5 to 0.5)) in series [5] was 0.476.
In series [2], “CTACCTCA (double strand) [8-mer CTACCTCA]” came in with a binding signal (PBM E-score (-0.5 to 0.5)) of 0.484.
As to “ATGCTAAT (double strand) [8-mer ATGCTAAT]”, in series [5], the binding signal (PBM E-score (-0.5 to 0.5)) was found to be 0.478.
In series [2], “TGAGGTAA (double strand) [8-mer TGAGGTAA]” registered a binding signal (PBM E-score (-0.5 to 0.5)) of 0.49.
With “TAAGCTTA (double strand) [8-mer TAAGCTTA]”, the binding signal (PBM E-score (-0.5 to 0.5)) was 0.496 in series [6] and 0.497 in series [5].
In series [2], “ATGAGGGA (double strand) [8-mer ATGAGGGA]” registered a binding signal (PBM E-score (-0.5 to 0.5)) of 0.478.
“CCTCAATC (double strand) [8-mer CCTCAATC]” had a binding signal (PBM E-score (-0.5 to 0.5)) in series [2] of 0.477.
Regarding “ATGAGGTA (double strand) [8-mer ATGAGGTA]”, the binding signal (PBM E-score (-0.5 to 0.5)) in series [2] came out at 0.484.
Regarding “AAGCTTAT (double strand) [8-mer AAGCTTAT]”, the binding signal (PBM E-score (-0.5 to 0.5)) in series [6] was determined as 0.488; in series [5] it was 0.487.
On to “AAGCTTAC (double strand) [8-mer AAGCTTAC]”, for which the binding signal (PBM E-score (-0.5 to 0.5)) was found to be 0.485 in series [6] and 0.489 in series [5].
Regarding “ACCTCACT (double strand) [8-mer ACCTCACT]”, the binding signal (PBM E-score (-0.5 to 0.5)) in series [2] was found to be 0.478.
Consider “ATCCCTCA (double strand) [8-mer ATCCCTCA]”, for which, in series [2], the binding signal (PBM E-score (-0.5 to 0.5)) came to 0.482.
In the case of “TGCTAGCA (double strand) [8-mer TGCTAGCA]”, in series [5], the binding signal (PBM E-score (-0.5 to 0.5)) was 0.48.
In series [5], “ATGCTTAA (double strand) [8-mer ATGCTTAA]” registered a binding signal (PBM E-score (-0.5 to 0.5)) of 0.48.
Sequence “ACCTCAAA (double strand) [8-mer ACCTCAAA]” showed a binding signal (PBM E-score (-0.5 to 0.5)) in series [2] of 0.481.
“AACCTCAA (double strand) [8-mer AACCTCAA]”: the binding signal (PBM E-score (-0.5 to 0.5)) in series [2] is 0.483.
On the same count and under the same terms, for “ACCTCAAT (double strand) [8-mer ACCTCAAT]” the value was 0.49.
Regarding “AAAGCTTA (double strand) [8-mer AAAGCTTA]”, the binding signal (PBM E-score (-0.5 to 0.5)) in series [6] worked out at 0.485; in series [5], 0.481.
Regarding “ACGTCATA (double strand) [8-mer ACGTCATA]”, the binding signal (PBM E-score (-0.5 to 0.5)) in series [7] turned out to be 0.497; in series [8] it was 0.464; in series [3], 0.493.
